# Source: patent US20230279491A1, “TREATMENTS FOR A SUB-POPULATION OF INFLAMMATORY BOWEL DISEASE PATIENTS” (CEDARS-SINAI MEDICAL CENTER, priority 2020, published 2023)
# B1: TL1A: TNF Superfamily Member 15 (TL1A), cytokine encoded by TNFSF15, used to treat T-cells (protein)
# chain: MAEDLGLSFGETASVEMLPEHGSCRPKARSSSARWALTCCLVLLPFLAGLTTYLLVSQLRAQGEACVQFQALKGQEFAPSHQQVYAPLRADGDKPRAHLTVVRQTPTQHFKNQFPALHWEHELGLAFTKNRMNYTNKFLLIPESGDYFIYSQVTFRGMTSECSEIRQAGRPNKPDSITVVITKVTDSYPEPTQLLMGTKSVCEVGSNWFQPIYLGAMFSLQEGDKLMVNVSDISLVDYTKEDKTFFGAFLL
# Test system: T-cells
# Assay: TL1A treatment of T-cells (IL12+IL18, TL1A+IL12+IL18, untreated): miR-155, INFG and IL22 expression
# Format: cell-based
# Excerpt: T-cells were divided into 3 treatment groups: cells treated with IL12+IL18, cells treated with TL1A+IL12+IL18, and untreated cells (ut), as depicted in FIG. 13A.
# [1] = TL1A+IL12+IL18 compared to no treatment or only IL12 and L18 treatment
# [2] = treatment with TL1A (TL1A+IL12+IL18)
molecule,measurement,setting,value
B1,miR-155 expression,FIG. 13B,upregulation
same,miR-155 3p,[1],upregulation
same,miR-155 5p,[1],upregulation
same,IL22 mRNA,cells treated with TL1A (TL1A+IL12+IL18),increased
same,INFG secretion,[2],increase
same,levels of INFG mRNA,[2],increase
